Source: IntAct's records for PubMed 15070733

Tests used:
[1] = molecular target: fbw1a_human BTRC (UniProt Q9Y297)
[2] = molecular target: fbw1b_human FBXW11 (UniProt Q9UKB1)
fbw1b_human FBXW11, sequence (Q9UKB1 whole entry): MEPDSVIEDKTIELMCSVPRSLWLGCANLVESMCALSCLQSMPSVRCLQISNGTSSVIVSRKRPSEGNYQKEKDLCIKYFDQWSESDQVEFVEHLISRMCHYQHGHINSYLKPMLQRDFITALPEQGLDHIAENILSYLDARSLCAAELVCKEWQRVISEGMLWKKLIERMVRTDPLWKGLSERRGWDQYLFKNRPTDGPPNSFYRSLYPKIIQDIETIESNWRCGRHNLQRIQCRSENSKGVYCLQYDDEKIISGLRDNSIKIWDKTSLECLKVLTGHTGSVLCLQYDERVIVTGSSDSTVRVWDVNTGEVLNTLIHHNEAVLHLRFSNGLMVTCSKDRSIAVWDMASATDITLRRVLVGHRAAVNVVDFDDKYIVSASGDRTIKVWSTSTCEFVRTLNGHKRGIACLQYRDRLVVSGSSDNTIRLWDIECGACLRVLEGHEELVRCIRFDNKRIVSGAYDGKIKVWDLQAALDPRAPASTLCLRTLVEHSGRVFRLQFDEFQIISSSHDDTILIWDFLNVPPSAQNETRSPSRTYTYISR

fbw1a_human BTRC, sequence (Q9Y297 whole entry): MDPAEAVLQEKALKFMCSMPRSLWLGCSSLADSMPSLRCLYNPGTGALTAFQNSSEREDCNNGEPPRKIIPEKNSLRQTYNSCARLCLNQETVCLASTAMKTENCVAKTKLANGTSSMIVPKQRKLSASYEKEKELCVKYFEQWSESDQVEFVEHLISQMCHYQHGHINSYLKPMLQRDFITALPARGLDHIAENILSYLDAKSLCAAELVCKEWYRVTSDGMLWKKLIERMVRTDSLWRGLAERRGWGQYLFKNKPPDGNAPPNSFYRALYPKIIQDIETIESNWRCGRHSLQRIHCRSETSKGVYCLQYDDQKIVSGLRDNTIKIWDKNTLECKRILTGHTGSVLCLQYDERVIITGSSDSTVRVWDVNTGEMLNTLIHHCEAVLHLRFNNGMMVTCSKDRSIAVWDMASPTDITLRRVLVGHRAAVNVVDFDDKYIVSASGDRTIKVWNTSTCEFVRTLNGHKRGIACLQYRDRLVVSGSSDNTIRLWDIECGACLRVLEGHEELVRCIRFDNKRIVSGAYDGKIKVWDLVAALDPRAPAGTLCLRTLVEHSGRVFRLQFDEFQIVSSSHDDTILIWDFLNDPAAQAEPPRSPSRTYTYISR

Substance	effect of a mutation on the interaction [1]	effect of a mutation on the interaction [2]
Wee1-like protein kinase (Homo sapiens), P30291 S123A	decreasing interaction	–
Wee1-like protein kinase (Homo sapiens), P30291 E116A;E117A	decreasing interaction	–
Wee1-like protein kinase (Homo sapiens), P30291 S121A	decreasing interaction	–
Wee1-like protein kinase (Homo sapiens), P30291 S53A;S123A	–	decreasing interaction
Wee1-like protein kinase (Homo sapiens), P30291 D52A;S123A	–	decreasing interaction
